The assay concerns the target T1, SARS-CoV-2 spike receptor-binding domain (RBD), original Wuhan isolate (SARS-CoV-2, Wuhan isolate, UniProt P0DTC2).
T1 construct: not shown: His tag, C-terminal, kept
The assay is described as follows: BLI. The following applies: both partners purified.

B1: G32Q4 Fab (Fab, V domains shown)
VH: QVQLVESGGGVVQPGRSLRLSCAASGFTFSRYAMQWVRQAPGKGLEWVAVISYDGNNRYYADSVKGRFTISRDNSKNTLYLQMNSLRAEDTAVYYCARGPPGYYDSSGYYQTPEYFQHWGQGTLVTVSS
VL: QSVLTQPPSVSGAPGQRVTISCTGSSSNIGVGYDVHWYQQFPGTVPKLLIYGNSNRPSGVPDRFSGSKSGTSASLAITGLQAEDEADYYCQSYDSSLSGVVFGGGTKLTVL
In general, koff refers to the first-order rate constant of dissociation. Read a low koff as slow dissociation. Broadly, the kon is a measure of how fast the partners come together. Low readings indicate slow association, high ones fast association. For B1, the koff was determined as 0.0066 s⁻¹ and the kon is 1.2e+06 M⁻¹ s⁻¹.

The values above are taken from publication PMC9097876 (Science Immunology, 2022).
